Results on 29 molecules are retold here after article PMC9352680, “A comprehensive thermodynamic model for RNA binding by the Saccharomyces cerevisiae Pumilio protein PUF4”.

This data set addresses T1, PUF4 RNA-binding domain (Saccharomyces cerevisiae, UniProt P25339 537-888).
T1 sequence: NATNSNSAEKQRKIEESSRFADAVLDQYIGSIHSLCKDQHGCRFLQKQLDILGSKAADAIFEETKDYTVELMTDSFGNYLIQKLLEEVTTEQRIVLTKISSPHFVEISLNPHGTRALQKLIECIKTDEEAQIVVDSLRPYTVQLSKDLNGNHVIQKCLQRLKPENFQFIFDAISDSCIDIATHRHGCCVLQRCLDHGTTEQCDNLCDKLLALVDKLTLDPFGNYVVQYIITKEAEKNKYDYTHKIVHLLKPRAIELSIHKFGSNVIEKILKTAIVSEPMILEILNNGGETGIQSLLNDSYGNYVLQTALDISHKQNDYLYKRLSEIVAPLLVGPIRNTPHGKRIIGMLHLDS
The experiment in a line: Mg; RNA-MaP; 20 mM Na-HEPES pH 7.4, 30 mM KOAc, 0.75 mM MgCl2, 0.1% Tween-20, 5% glycerol, 0.1 mg/mL BSA, 2 mM DTT; 25 C; 0.0125-409.6 nM protein. The following applies: tags: N-His6-TEV cleaved; C-SNAP kept, Cy3B-labelled; label: tethered on chip by stalled RNA polymerase.

B1: Id_ii_S1_P5E.4_K5.3_C5.2_[C-2A]_H5.3_A5.1_F5.1_T5.2_[T11A]_[A12C] (ssRNA)
RNA: UCUCUUAUACACUUAUUAACUCUCUU
As a reminder, the Kd is a measure of binding affinity in units of concentration. A higher Kd goes with lower affinity. B1: the Kd was 464 nM.

B2: Id_ii_S1_P5E.4_K5.3_C5.2_[C-2A]_[T-1G]_H5.3_A5.1_F5.1_T5.2_[T11C]_[A12T] (ssRNA)
RNA: UCUCUUAGACACUUAUUACUUCUCUU
B2 came in with a Kd of over 2300 nM.

B3: Id_ii_S1_P5E.4_K5.3_C5.2_[C-2A]_H5.3_A5.1_F5.1_T5.2_[T11G]_[A12C] (ssRNA)
RNA: UCUCUUAUACACUUAUUAGCUCUCUU
For B3, binding was characterised by a dissociation constant (Kd) of 647 nM.

B4: Id_ii_S1_P5E.4_K5.3_C5.2_[C-2A]_[T-1G]_H5.3_A5.1_F5.1_T5.2_[T11A]_[A12C] (ssRNA)
RNA: UCUCUUAGACACUUAUUAACUCUCUU
On to B4, for which the Kd is over 2300 nM.

B5: Id_ii_S1_P5E.4_K5.3_C5.2_[C-2A]_H5.3_A5.1_F5.1_T5.2_[A12C] (ssRNA)
RNA: UCUCUUAUACACUUAUUAUCUCUCUU
Turning to B5, the Kd was 435 nM.

B6: Id_ii_S1_P5E.4_K5.3_C5.2_[C-2A]_[T-1A]_H5.3_A5.1_F5.1_T5.2_[T11A]_[A12C] (ssRNA)
RNA: UCUCUUAAACACUUAUUAACUCUCUU
The molecule B6 gave a Kd of over 2300 nM.

B7: Id_ii_S1_P5E.4_K5.3_C5.2_[C-2A]_H5.3_A5.1_F5.1_T5.2_[A12T] (ssRNA)
RNA: UCUCUUAUACACUUAUUAUUUCUCUU
With B7, the Kd stood at 517 nM.

B8: Id_ii_S1_P5E.4_K5.3_C5.2_[C-2A]_H5.3_A5.1_F5.1_T5.2_[T11A] (ssRNA)
RNA: UCUCUUAUACACUUAUUAAAUCUCUU
In turn, B8 showed a Kd of 744 nM.

B9: Id_ii_S1_P5E.4_K5.3_C5.2_[C-2A]_[T-1G]_H5.3_A5.1_F5.1_T5.2_[T11C]_[A12C] (ssRNA)
RNA: UCUCUUAGACACUUAUUACCUCUCUU
Consider B9, for which the Kd is over 2300 nM.

B10: Ib_S1_P5E.1_K5.1_C5.1_H5.1_A5.1_F5.1_[T9C]_[A10C]_T5.1 (ssRNA)
RNA: UCUCUUUGUAUUAUCCUCUCUU
The molecule B10 registered a Kd of 26.8 nM. In other words, the double-digit nanomolar range.

B11: Id_ii_S1_P5E.4_K5.3_C5.2_[C-2A]_[T-1C]_H5.3_A5.1_F5.1_T5.2_[T11A] (ssRNA)
RNA: UCUCUUACACACUUAUUAAAUCUCUU
B11 displayed a Kd of over 2300 nM.

B12: Id_ii_S1_P5E.4_K5.3_C5.2_[C-2A]_[T-1C]_H5.3_A5.1_F5.1_T5.2_[T11A]_[A12T] (ssRNA)
RNA: UCUCUUACACACUUAUUAAUUCUCUU
B12 showed a Kd of over 2300 nM.

B13: Id_ii_S1_P5E.4_K5.3_C5.2_[C-2A]_H5.3_A5.1_F5.1_T5.2_[T11C]_[A12T] (ssRNA)
RNA: UCUCUUAUACACUUAUUACUUCUCUU
In turn, B13 had a Kd of 666 nM.

B14: Id_ii_S1_P5E.4_K5.3_C5.2_[C-2A]_H5.3_A5.1_F5.1_T5.2_[T11C]_[A12C] (ssRNA)
RNA: UCUCUUAUACACUUAUUACCUCUCUU
Turning to B14, the Kd was 606 nM.

B15: Ib_S1_P5E.1_K5.1_C5.1_H5.1_A5.1_F5.1_[T9G]_[A10T]_T5.1 (ssRNA)
RNA: UCUCUUUGUAUUAUGUUCUCUU
B15 came in with a Kd of 10.8 nM.

B16: Ib_S1_P5E.1_K5.1_C5.1_H5.1_A5.1_F5.1_[T9G]_[A10C]_T5.1 (ssRNA)
RNA: UCUCUUUGUAUUAUGCUCUCUU
B16 yielded a dissociation constant Kd of 15.2 nM.

B17: Id_ii_S1_P5E.4_K5.3_C5.2_[C-2A]_[T-1A]_H5.3_A5.1_F5.1_T5.2_[T11C]_[A12G] (ssRNA)
RNA: UCUCUUAAACACUUAUUACGUCUCUU
The molecule B17 gave a Kd of over 2300 nM.

B18: Id_ii_S1_P5E.4_K5.3_C5.2_[C-2T]_[T-1A]_H5.3_A5.1_F5.1_T5.2_[T11C]_[A12C] (ssRNA)
RNA: UCUCUUUAACACUUAUUACCUCUCUU
B18 returned a Kd of over 2300 nM.

B19: Ib_S1_P5E.1_K5.1_C5.1_H5.1_A5.1_F5.1_[T9G]_[A10G]_T5.1 (ssRNA)
RNA: UCUCUUUGUAUUAUGGUCUCUU
Regarding B19, the affinity, expressed as Kd, was 7.8 nM. That is a single-digit nanomolar value.

B20: Ib_S1_P5E.1_K5.1_C5.1_H5.1_A5.1_F5.1_[T9C]_[A10G]_T5.1 (ssRNA)
RNA: UCUCUUUGUAUUAUCGUCUCUU
As for B20, binding was put at a Kd of 30.6 nM. This Kd is about 3.9-fold higher than that of the molecule before.

B21: Id_ii_S1_P5E.4_K5.3_C5.2_[C-2T]_[T-1A]_H5.3_A5.1_F5.1_T5.2_[T11C]_[A12T] (ssRNA)
RNA: UCUCUUUAACACUUAUUACUUCUCUU
In turn, B21 displayed a Kd of over 2300 nM.

B22: Id_ii_S1_P5E.4_K5.3_C5.2_[C-2A]_[T-1C]_H5.3_A5.1_F5.1_T5.2_[T11C]_[A12C] (ssRNA)
RNA: UCUCUUACACACUUAUUACCUCUCUU
In the case of B22, the Kd is over 2300 nM.

B23: Id_ii_S1_P5E.4_K5.3_C5.2_[C-2T]_H5.3_A5.1_F5.1_T5.2_[T11C]_[A12C] (ssRNA)
RNA: UCUCUUUUACACUUAUUACCUCUCUU
In turn, B23 registered a Kd of over 2300 nM.

B24: Id_ii_S1_P5E.4_K5.3_C5.2_[C-2T]_[T-1C]_H5.3_A5.1_F5.1_T5.2 (ssRNA)
RNA: UCUCUUUCACACUUAUUAUAUCUCUU
Consider B24, for which the Kd is over 2300 nM.

B25: Id_ii_S1_P5E.4_K5.3_C5.2_[C-2A]_[T-1G]_H5.3_A5.1_F5.1_T5.2_[T11C] (ssRNA)
RNA: UCUCUUAGACACUUAUUACAUCUCUU
Take B25: the Kd is over 2300 nM.

B26: Id_ii_S1_P5E.4_K5.3_C5.2_[C-2A]_[T-1A]_H5.3_A5.1_F5.1_T5.2_[T11A]_[A12T] (ssRNA)
RNA: UCUCUUAAACACUUAUUAAUUCUCUU
In turn, B26 gave a Kd of over 2300 nM.

B27: Id_ii_S1_P5E.4_K5.3_C5.2_[C-2T]_H5.3_A5.1_F5.1_T5.2_[A12C] (ssRNA)
RNA: UCUCUUUUACACUUAUUAUCUCUCUU
Consider B27, for which the Kd was over 2300 nM.

B28: Id_ii_S1_P5E.4_K5.3_C5.2_[C-2A]_[T-1A]_H5.3_A5.1_F5.1_T5.2_[A12T] (ssRNA)
RNA: UCUCUUAAACACUUAUUAUUUCUCUU
As to B28, the Kd is over 2300 nM.

B29: Id_ii_S1_P5E.4_K5.3_C5.2_[C-2T]_[T-1A]_H5.3_A5.1_F5.1_T5.2_[T11A] (ssRNA)
RNA: UCUCUUUAACACUUAUUAAAUCUCUU
For B29, the Kd was over 2300 nM.
